Results as given in patent US20260098059A1 (ENDOMET BIOSCIENCES, published 2026).
Several values for one entry are separate records, joined by “and”; a condition that tells them apart may be missing. Equal entries are not always repeated. [ ]: non-standard residue; d: D form. The star is where a group is joined. NMeW = CN[C@@H](Cc1c[nH]c2ccccc12)C(=O)O; Stearoyl = CCCCCCCCCCCCCCCCCC(=O)*; Palmitoyl = CCCCCCCCCCCCCCCC(=O)*; αMeV = CC(C)[C@](C)(N)C(=O)O; αMeS = C[C@](N)(CO)C(=O)O; GABA = NCCCC(=O)O; βAla = NCCC(=O)O

T1: β-catenin (UniProt P35222 134-665, limits assumed, biotinylated in the SPR and plate assays)
T1 sequence (looked up): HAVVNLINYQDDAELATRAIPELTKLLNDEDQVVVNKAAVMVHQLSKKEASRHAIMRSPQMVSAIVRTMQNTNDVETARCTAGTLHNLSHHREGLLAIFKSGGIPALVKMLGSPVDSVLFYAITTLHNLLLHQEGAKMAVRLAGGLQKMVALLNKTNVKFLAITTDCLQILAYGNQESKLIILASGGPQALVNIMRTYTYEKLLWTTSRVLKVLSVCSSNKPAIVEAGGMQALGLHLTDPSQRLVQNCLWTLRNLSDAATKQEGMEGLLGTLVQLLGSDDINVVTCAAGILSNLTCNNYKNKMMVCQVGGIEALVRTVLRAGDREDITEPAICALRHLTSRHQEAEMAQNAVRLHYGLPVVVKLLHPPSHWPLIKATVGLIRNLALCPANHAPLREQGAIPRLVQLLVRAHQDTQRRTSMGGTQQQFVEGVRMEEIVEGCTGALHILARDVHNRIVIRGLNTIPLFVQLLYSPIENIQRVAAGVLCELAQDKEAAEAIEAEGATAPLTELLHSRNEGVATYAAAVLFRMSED

B1: SEQ ID NO: 394 (peptide)
peptide: Stearoyl-[βAla]W[NMeW]E[αMeS]ILDEH[αMeV]QRVW-OH
SMILES: CCCCCCCCCCCCCCCCCC(=O)NCCC(=O)N[C@@H](Cc1c[nH]c2ccccc12)C(=O)N(C)[C@@H](Cc1c[nH]c2ccccc12)C(=O)N[C@@H](CCC(=O)O)C(=O)N[C@@](C)(CO)C(=O)N[C@H](C(=O)N[C@@H](CC(C)C)C(=O)N[C@@H](CC(=O)O)C(=O)N[C@@H](CCC(=O)O)C(=O)N[C@@H](Cc1c[nH]cn1)C(=O)N[C@](C)(C(=O)N[C@@H](CCC(N)=O)C(=O)N[C@@H](CCCNC(=N)N)C(=O)N[C@H](C(=O)N[C@@H](Cc1c[nH]c2ccccc12)C(=O)O)C(C)C)C(C)C)[C@@H](C)CC
B2: SEQ ID NO: 399 (peptide)
peptide: Palmitoyl-[βAla]W[NMeW]E[αMeS]ILDEH[αMeV]QRVW-OH
SMILES: CCCCCCCCCCCCCCCC(=O)NCCC(=O)N[C@@H](Cc1c[nH]c2ccccc12)C(=O)N(C)[C@@H](Cc1c[nH]c2ccccc12)C(=O)N[C@@H](CCC(=O)O)C(=O)N[C@@](C)(CO)C(=O)N[C@H](C(=O)N[C@@H](CC(C)C)C(=O)N[C@@H](CC(=O)O)C(=O)N[C@@H](CCC(=O)O)C(=O)N[C@@H](Cc1c[nH]cn1)C(=O)N[C@](C)(C(=O)N[C@@H](CCC(N)=O)C(=O)N[C@@H](CCCNC(=N)N)C(=O)N[C@H](C(=O)N[C@@H](Cc1c[nH]c2ccccc12)C(=O)O)C(C)C)C(C)C)[C@@H](C)CC
B3: SEQ ID NO: 412 (peptide)
peptide: AEEDPQTILDDHLSRVLK
HELM: PEPTIDE1{[ac].[bAla].E.E.D.P.Q.T.I.L.D.D.H.L.S.R.V.L.K.[am]}$$$$V2.0
SMILES: CC[C@H](C)[C@H](NC(=O)[C@@H](NC(=O)[C@H](CCC(N)=O)NC(=O)[C@@H]1CCCN1C(=O)[C@H](CC(=O)O)NC(=O)[C@H](CCC(=O)O)NC(=O)[C@H](CCC(=O)O)NC(=O)CCNC(C)=O)[C@@H](C)O)C(=O)N[C@@H](CC(C)C)C(=O)N[C@@H](CC(=O)O)C(=O)N[C@@H](CC(=O)O)C(=O)N[C@@H](Cc1c[nH]cn1)C(=O)N[C@@H](CC(C)C)C(=O)N[C@@H](CO)C(=O)N[C@@H](CCCNC(=N)N)C(=O)N[C@H](C(=O)N[C@@H](CC(C)C)C(=O)N[C@@H](CCCCN)C(N)=O)C(C)C
B4: SEQ ID NO: 50 (peptide)
peptide: MSRMAFLISFWG
HELM: PEPTIDE1{M.S.R.M.[meA].F.L.I.S.F.W.G}$$$$V2.0
SMILES: CC[C@H](C)[C@H](NC(=O)[C@H](CC(C)C)NC(=O)[C@H](Cc1ccccc1)NC(=O)[C@H](C)N(C)C(=O)[C@H](CCSC)NC(=O)[C@H](CCCNC(=N)N)NC(=O)[C@H](CO)NC(=O)[C@@H](N)CCSC)C(=O)N[C@@H](CO)C(=O)N[C@@H](Cc1ccccc1)C(=O)N[C@@H](Cc1c[nH]c2ccccc12)C(=O)NCC(=O)O
B5: SEQ ID NO: 451 (peptide)
peptide: WAESILKEHVQRVWG
HELM: PEPTIDE1{[CCCCCCCCCCCC(=O)[*:2]].W.[meA].E.S.I.L.K.E.H.V.Q.R.V.W.G.[am]}$PEPTIDE1,PEPTIDE1,4:R3-8:R3$$$V2.0
SMILES: CCCCCCCCCCCC(=O)N[C@@H](Cc1c[nH]c2ccccc12)C(=O)N(C)[C@@H](C)C(=O)N[C@H]1CCC(=O)NCCCC[C@@H](C(=O)N[C@@H](CCC(=O)O)C(=O)N[C@@H](Cc2c[nH]cn2)C(=O)N[C@H](C(=O)N[C@@H](CCC(N)=O)C(=O)N[C@@H](CCCNC(=N)N)C(=O)N[C@H](C(=O)N[C@@H](Cc2c[nH]c3ccccc23)C(=O)NCC(N)=O)C(C)C)C(C)C)NC(=O)[C@H](CC(C)C)NC(=O)[C@H]([C@@H](C)CC)NC(=O)[C@H](CO)NC1=O
B6: SEQ ID NO: 453 (peptide)
peptide: WAQKILNDHGQAV
HELM: PEPTIDE1{[CCCCCCCCCCCC(=O)[*:2]].W.[meA].Q.K.I.L.N.D.H.[O=C([C@@H](N[*:1])C1CCCCC1)[*:2]].Q.A.V.[am]}$PEPTIDE1,PEPTIDE1,5:R3-9:R3$$$V2.0
SMILES: CCCCCCCCCCCC(=O)N[C@@H](Cc1c[nH]c2ccccc12)C(=O)N(C)[C@@H](C)C(=O)N[C@@H](CCC(N)=O)C(=O)N[C@H]1CCCCNC(=O)C[C@@H](C(=O)N[C@@H](Cc2c[nH]cn2)C(=O)N[C@H](C(=O)N[C@@H](CCC(N)=O)C(=O)N[C@@H](C)C(=O)N[C@H](C(N)=O)C(C)C)C2CCCCC2)NC(=O)[C@H](CC(N)=O)NC(=O)[C@H](CC(C)C)NC(=O)[C@H]([C@@H](C)CC)NC1=O
B7: SEQ ID NO: 454 (peptide)
peptide: WAQKILNDHGQAV
HELM: PEPTIDE1{[CCCCCCCCCCCCCCCC(=O)[*:2]].W.[meA].Q.K.I.L.N.D.H.[O=C([C@@H](N[*:1])C1CCCCC1)[*:2]].Q.A.V.[am]}$PEPTIDE1,PEPTIDE1,5:R3-9:R3$$$V2.0
SMILES: CCCCCCCCCCCCCCCC(=O)N[C@@H](Cc1c[nH]c2ccccc12)C(=O)N(C)[C@@H](C)C(=O)N[C@@H](CCC(N)=O)C(=O)N[C@H]1CCCCNC(=O)C[C@@H](C(=O)N[C@@H](Cc2c[nH]cn2)C(=O)N[C@H](C(=O)N[C@@H](CCC(N)=O)C(=O)N[C@@H](C)C(=O)N[C@H](C(N)=O)C(C)C)C2CCCCC2)NC(=O)[C@H](CC(N)=O)NC(=O)[C@H](CC(C)C)NC(=O)[C@H]([C@@H](C)CC)NC1=O

molecular target: T1, β-catenin; test: cell-based or functional assay

Row | Binder | Wnt Reporter EC50 | Proliferation IC50, Wnt dependent cells | Proliferation IC50, Endo cells
1 | B1 | > 7.5 µM and ≤ 15 µM | – | –
2 | {Stearoyl-GABA}-W[NMeW]E[αMeS]ILDEH[αMeV]QRVW-OH [SEQ ID NO: 395] | > 7.5 µM and ≤ 15 µM | 6.8 µM | –
3 | Palmitoyl-W[NMeW]E[αMeS]ILDEH[αMeV]QRVWG-OH [SEQ ID NO: 396] | > 7.5 µM and ≤ 15 µM | 2.9 µM | 15 µM
4 | H-MSRMWFLISFWEG-OH [SEQ ID NO: 57] | ≤ 7.5 µM | – | –
5 | H-MSRMWFLISFWRG-OH [SEQ ID NO: 58] | > 22.5 µM and ≤ 30 µM | – | –
6 | Palmitoyl-W[NMeW]E[αMeS]ILDEH[αMeV]QRVW-OH [SEQ ID NO: 397] | > 7.5 µM and ≤ 15 µM | – | –
7 | Palmitoyl-GW[NMeW]E[αMeS]ILDEH[αMeV]QRVW-OH [SEQ ID NO: 398] | > 7.5 µM and ≤ 15 µM | – | –
8 | B2 | > 7.5 µM and ≤ 15 µM | – | –
9 | {Palmitoyl-GABA}-W[NMeW]E[αMeS]ILDEH[αMeV]QRVW-OH [SEQ ID NO: 400] | > 7.5 µM and ≤ 15 µM | – | –
10 | B3 | > 30 µM | – | –
11 | H-MSRMWFLISFWG-OH [SEQ ID NO: 41] | ≤ 7.5 µM | – | –
12 | H-MSRTWFLISFWG-OH [SEQ ID NO: 48] | > 7.5 µM and ≤ 15 µM | – | –
13 | B4 | > 30 µM | – | –
14 | H-MSRMLFLISFWG-OH [SEQ ID NO: 52] | > 15 µM and ≤ 22.5 µM | – | –
15 | H-MSRMWFLISSWG-OH [SEQ ID NO: 54] | > 15 µM and ≤ 22.5 µM | – | –
16 | H-MSRIWFLISFWG-OH [SEQ ID NO: 55] | ≤ 7.5 µM | – | –
17 | H-MSRMWFLVSFWG-OH [SEQ ID NO: 56] | > 7.5 µM and ≤ 15 µM | – | –
18 | H-MSRKWFLISFWG-OH [SEQ ID NO: 59] | > 30 µM | – | –
19 | H-MSRMWLLISFWG-OH [SEQ ID NO: 60] | > 7.5 µM and ≤ 15 µM | – | –
20 | H-MNRMWFLISFWG-OH [SEQ ID NO: 61] | > 7.5 µM and ≤ 15 µM | – | –
21 | H-MSRMWFLTSFWG-OH [SEQ ID NO: 62] | > 30 µM | – | –
22 | H-MSRMWFLFSFWG-OH [SEQ ID NO: 63] | ≤ 7.5 µM | – | –
23 | H-MSRVWFLISFWG-OH [SEQ ID NO: 64] | > 7.5 µM and ≤ 15 µM | – | –
24 | H-MSRMWFPISFWG-OH [SEQ ID NO: 65] | > 30 µM | – | –
25 | H-MGRMWFLISFWG-OH [SEQ ID NO: 67] | ≤ 7.5 µM | – | –
26 | H-MSRMWFLISLWG-OH [SEQ ID NO: 68] | > 7.5 µM and ≤ 15 µM | – | –
27 | H-MSRMWFLNSFWG-OH [SEQ ID NO: 70] | > 30 µM | – | –
28 | B5 | ≤ 7.5 µM | – | –
29 | B6 | ≤ 7.5 µM | – | –
30 | B7 | ≤ 7.5 µM | – | –
